These results are taken from patent US20170260508A1.

The experiment has as its target chimeric LILRB2-PILRβ receptor (aa 24-458 of hLILRB2) on mouse T cell hybridoma NFAT-GFP reporter cells (human), Q8N423. Nature of the experiment: cell-based or functional assay.

Sequence of chimeric LILRB2-PILRβ receptor (aa 24-458 of hLILRB2) on mouse T cell hybridoma NFAT-GFP reporter cells (human), Q8N423 (Q8N423 other isoform, or with tags, fused parts or gaps mutant limits assumed, form in doubt): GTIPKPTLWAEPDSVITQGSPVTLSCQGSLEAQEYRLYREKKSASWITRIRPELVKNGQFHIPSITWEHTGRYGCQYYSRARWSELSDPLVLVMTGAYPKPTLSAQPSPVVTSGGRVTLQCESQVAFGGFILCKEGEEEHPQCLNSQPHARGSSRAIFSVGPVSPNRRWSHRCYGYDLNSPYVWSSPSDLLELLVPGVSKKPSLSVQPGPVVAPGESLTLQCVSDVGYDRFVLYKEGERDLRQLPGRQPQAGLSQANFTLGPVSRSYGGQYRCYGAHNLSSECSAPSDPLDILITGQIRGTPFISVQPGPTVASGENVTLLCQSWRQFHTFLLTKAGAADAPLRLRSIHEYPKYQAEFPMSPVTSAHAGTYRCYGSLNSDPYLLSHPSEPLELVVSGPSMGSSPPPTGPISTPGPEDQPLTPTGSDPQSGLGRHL

B1: Angptl2-FLAG, full-length human Angptl2 secreted from transfected 293T cells, Q9UKU9 23-493 (ligand, not shown: small tags and cut ends)
chain: QEDGFEGTEEGSPREFIYLNRYKRAGESQDKCTYTFIVPQQRVTGAICVNSKEPEVLLENRVHKQELELLNNELLKQKRQIETLQQLVEVDGGIVSEVKLLRKESRNMNSRVTQLYMQLLHEIIRKRDNALELSQLENRILNQTADMLQLASKYKDLEHKYQHLATLAHNQSEIIAQLEEHCQRVPSARPVPQPPPAAPPRVYQPPTYNRIINQISTNEIQSDQNLKVLPPPLPTMPTLTSLPSSTDKPSGPWRDCLQALEDGHDTSSIYLVKPENTNRLMQVWCDQRHDPGGWTVIQRRLDGSVNFFRNWETYKQGFGNIDGEYWLGLENIYWLTNQGNYKLLVTMEDWSGRKVFAEYASFRLEPESEYYKLRLGRYHGNAGDSFTWHNGKQFTTLDRDHDVYTGNCAHYQKGGWWYNACAHSNLNGVWYRGGHYRSRYQDGVYWAEFRGGSYSLKKVVMMIRPNPNTFH
B1 displayed a GFP expression of LILRB2 reporter cells after 24 h with Angptl2 conditioned medium (2 µg/ml); control: mock medium of 18.9%.
